± gives the uncertainty stated by the source.

A short description of the data set: protein stability index of a GFP-peptide fusion (yeast GPS) (PSI 1-4); higher = more stable; sorted into four equal gates, so the index is relative within each strain. Summed up: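 Mid-log yeast cultures in leucine-free medium, carrying a pooled plasmid library, were sorted into four equal gates by their GFP/Cherry fluorescence ratio. Each plasmid expressed Cherry along with GFP fused upstream of a tiled 17-residue yeast protein peptide. Plasmids recovered from each gate were PCR-amplified and Illumina-sequenced, with reads assigned to strains by barcodes. The protein stability index was obtained by summing each gate's read frequency weighted by its gate number.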

Consider TLIDLVKHSPGAIKPFT [ECM29], for which the protein stability index runs as follows: (doa10∆) 2.16 ± 0.2; (pdr5∆) 2.93 ± 0.15; (san1∆) 1.95 ± 0.2; (ubr1∆) 2.92 ± 0.099.
As for QIQLAESELSLLEETQA [SMC4], the protein stability index by setting is: (doa10∆) 2.69 ± 0.066; (pdr5∆) 3.25 ± 0.063; (san1∆) 2.71 ± 0.095; (ubr1∆) 3.05 ± 0.052.
Taken in the same sequence, the figures for NAELLDYLFHLLISLNI [YLR018C/POM34] were 1.79 ± 0.044, 1.37 ± 0.031, 1.21 ± 0.068 and 1.28 ± 0.027.
As to LVLGEVSKKELYAIKKV [BRR2], the protein stability index (doa10∆) worked out at 1.68 ± 0.073, the protein stability index (pdr5∆) stood at 2.37 ± 0.096, the protein stability index (san1∆) was 3.13 ± 0.079 and the protein stability index (ubr1∆) was 1.83 ± 0.08.
Take DITDGKDYHTLANNVES [RPS18A]: the protein stability index was found to be 3.21 ± 0.052 (doa10∆), 3.31 ± 0.048 (pdr5∆), 3.22 ± 0.042 (san1∆) and 3.22 ± 0.04 (ubr1∆).
In the case of VAGGVAGGEAGEAEAEK [RPP1A], the protein stability index (pdr5∆) was 3.26 ± 0.17 and the protein stability index (ubr1∆) was 3.45 ± 0.13.
Take DKNSGVKSEVDVQVDAE [ITC1]: the protein stability index (doa10∆) was 2.1 ± 0.064, the protein stability index (pdr5∆) was 2.15 ± 0.073, the protein stability index (san1∆) stood at 1.79 ± 0.12 and the protein stability index (ubr1∆) worked out at 2.97 ± 0.065.
Taken in the same sequence, the figures for NSISSQPASYHSVQETN [SSN2] were 2.22 ± 0.049, 2.54 ± 0.058, 2.88 ± 0.068 and 2.69 ± 0.052.
As for MRLIKRVRAESLHSNSF [YJL039C/NUP192], the protein stability index runs as follows: (doa10∆) 2.12 ± 0.11; (pdr5∆) 1.64 ± 0.14; (ubr1∆) 2.44 ± 0.12.
In turn, IVQIDATPFRQWFEAHY [RPS8A] returned a protein stability index (doa10∆) of 2.425 ± 0.022, a protein stability index (pdr5∆) of 2.797 ± 0.025, a protein stability index (san1∆) of 2.626 ± 0.023 and a protein stability index (ubr1∆) of 2.697 ± 0.019.
Take YMDCLLYDLRASYAKIE [SNU114]: the protein stability index (doa10∆) was 1.84 ± 0.074, the protein stability index (pdr5∆) came to 2.32 ± 0.076, the protein stability index (san1∆) stood at 1.81 ± 0.095 and the protein stability index (ubr1∆) came to 1.74 ± 0.092.
Consider GKQIKSTIYNWGDNKLA [YML103C/NUP188], for which the protein stability index runs as follows: (doa10∆) 2.71 ± 0.17; (pdr5∆) 3.18 ± 0.15; (san1∆) 2.82 ± 0.11; (ubr1∆) 2.87 ± 0.1.
Taken in the same sequence, the figures for TSILELGQLYVTMGAKD [RPN6] were 3.23 ± 0.11, 2.85 ± 0.083, 2.96 ± 0.071 and 2.96 ± 0.059.
In the case of HFSKDDYSPESKGFVEN [RPO21], the protein stability index by setting is: (doa10∆) 2.88 ± 0.17; (pdr5∆) 2.28 ± 0.17.
ETNGYDPFSIYGFSNKE [SNF5] registered a protein stability index (doa10∆) of 1.64 ± 0.047, a protein stability index (pdr5∆) of 1.51 ± 0.075, a protein stability index (san1∆) of 2.12 ± 0.083 and a protein stability index (ubr1∆) of 2.03 ± 0.063.
Taken in the same sequence, the figures for GQKNEVRILRLITTNSV [SNF2] were 2.21 ± 0.052, 1.95 ± 0.052, 2.14 ± 0.058 and 2.08 ± 0.049.
Taken in the same sequence, the figures for VRELFEMARTKKACIIF [RPT1] were 1.12 ± 0.093, 1.29 ± 0.11, 1.08 ± 0.21 and 1.66 ± 0.14.
Turning to LMEASDAFRVHICGICG [RPB2], the protein stability index amounted to 2.08 ± 0.062 (doa10∆), 1.83 ± 0.098 (pdr5∆), 2.23 ± 0.11 (san1∆) and 2.5 ± 0.072 (ubr1∆).
Turning to LTLKEAELLVLKILKQV [PUP2], the protein stability index reads like this: (doa10∆) 2.05 ± 0.29; (pdr5∆) 2.4 ± 0.26; (ubr1∆) 1.63 ± 0.25.
For the sequence NPEEVEQVAEEAAAAEE [RPS0B], the protein stability index stood at 3.07 ± 0.092 (doa10∆), 3.03 ± 0.11 (pdr5∆), 2.95 ± 0.12 (san1∆) and 3.26 ± 0.071 (ubr1∆).
Take TYASVTGLFTLERTDLK [RPN7]: the protein stability index runs as follows: (doa10∆) 3.43 ± 0.23; (ubr1∆) 2.62 ± 0.21.
With FVKFITYLTQEILILIN [SIN4], the protein stability index (doa10∆) was found to be 2.02 ± 0.05, the protein stability index (pdr5∆) was determined as 1.7 ± 0.044, the protein stability index (san1∆) stood at 1.57 ± 0.069 and the protein stability index (ubr1∆) is 1.59 ± 0.042.
In the same order, the values of SKNAERKWAARAASAKI [RPS8A] are 3.135 ± 0.03, 3.212 ± 0.028, 3.173 ± 0.022 and 3.219 ± 0.026.
In the same order, the values of KISNSEFFNPEIFHLLQ [SIN4] are 2.13 ± 0.079, 1.74 ± 0.072, 1.61 ± 0.087 and 2.16 ± 0.07.
Taken in the same sequence, the figures for REIQIDAVLKIFSFHQD [SRB8] were 3.27 ± 0.08, 3.12 ± 0.09, 3.06 ± 0.052 and 3.04 ± 0.04.
As for IKETKENDEEFYKNKYS [RPN2], the protein stability index is 1.34 ± 0.13 (doa10∆), 1.5 ± 0.19 (pdr5∆), 1.31 ± 0.26 (san1∆) and 1.51 ± 0.21 (ubr1∆).
Taken in the same sequence, the figures for IRQDVNLGRAVFWEIQS [PRP8] were 3.04 ± 0.069, 2.86 ± 0.053, 2.64 ± 0.06 and 2.86 ± 0.04.
Taken in the same sequence, the figures for LIQKLQNSANNNSDDED [IRR1] were 2.98 ± 0.1, 3.08 ± 0.074, 3.26 ± 0.05 and 3.38 ± 0.083.
In the same order, the values of FGKTVKDGPFYTGSMSL [RPC31] are 2.92 ± 0.15, 3.17 ± 0.11, 2.81 ± 0.086 and 2.98 ± 0.1.
In the case of PGKGILTTAREHHSSVK [FAS2], the protein stability index is, setting by setting: (doa10∆) 3.07 ± 0.087; (pdr5∆) 3.32 ± 0.076; (san1∆) 3.17 ± 0.049; (ubr1∆) 3.11 ± 0.067.
In the same order, the values of LIVRAKNHTHNLPGNIT [RRP4] are 2.77 ± 0.071, 2.96 ± 0.049, 2.89 ± 0.066 and 2.94 ± 0.052.
In the same order, the values of KKISRLPKFLTVQYVRF [UBP6] are 1.65 ± 0.043, 1.44 ± 0.041, 1.28 ± 0.08 and 1.36 ± 0.035.
In the same order, the values of KPGRMPFNFTVTLFQMA [CDC53] are 1.65 ± 0.039, 1.99 ± 0.043, 2.17 ± 0.08 and 2.05 ± 0.051.
As for LLGIDATVPSGRPETYI [RPO31], the protein stability index was found to be 2.71 ± 0.15 (doa10∆) and 2.32 ± 0.15 (pdr5∆).
For the sequence HKYVLTLQLYMVHREFL [RGR1], the protein stability index is, setting by setting: (doa10∆) 1.38 ± 0.039; (pdr5∆) 1.47 ± 0.037; (san1∆) 1.86 ± 0.055; (ubr1∆) 2.1 ± 0.034.
Taken in the same sequence, the figures for STEYMMQFAKSKTVKVL [RPN6] were 1.1 ± 0.064, 1.2 ± 0.073, 1.2 ± 0.2 and 1.07 ± 0.094.
Taken in the same sequence, the figures for VANSPNKRLDVIDGKLP [YDL088C/ASM4] were 3.03 ± 0.068, 2.8 ± 0.067, 2.42 ± 0.094 and 2.11 ± 0.058.
In the same order, the values of RLSNEMHALKNRSEQNG [RGR1] are 3.32 ± 0.12, 3.25 ± 0.17, 3.09 ± 0.16 and 2.9 ± 0.12.
Turning to NVKEITEKLKISPESVF [SMC3], the protein stability index was found to be 1.7 ± 0.086 (doa10∆), 2.18 ± 0.069 (pdr5∆), 2.32 ± 0.13 (san1∆) and 2.04 ± 0.052 (ubr1∆).

Source of the values: the supplement of paper PMC9732359.
